From the supplement of paper PMC9170038 come the findings set out here.

The data set has as its system MS2 coat protein. The data set is described as follows: apparent KD of MS2 coat protein; higher = weaker reporter binding. As to conditions: Eterna round: R107. In a few lines:
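Each design's apparent KD comes from the median of binding-curve fits to its normalised clusters. Those clusters carried RNA switches transcribed on-chip from Illumina sequencing clusters. SNAP-549-labelled MS2 coat protein was titrated onto them in twofold steps (0.7 or 1.5 nM to 3 µM; per step 0.8–1.5 h down to 10–20 min). Conditions were 100 mM Tris-HCl pH 7.5, 80 mM KCl, 4 mM MgCl2, without or with constant ligand.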

Where [1] appears, read: input ligand: theophylline 20 uM.
Where [2] appears, read: input ligand: theophylline 2 mM.
The mark [3] stands for this setting: input ligand: tryptophan 2.4 mM.

With “UCUAGUGCGGGAAGGAGCGCCAUACAUGAGGAUCACCCAUGUUGAGCAUGCUCGUGUACUAGGCAGGUAGGUCGCCCGCUCUACG [Radionle]”, the “apparent KD of MS2 coat protein” value runs as follows: (input ligand: arginine 13.2 mM) 28.8 nM; (input ligand: none) 27.2 nM; under setting [1], 30.9 nM; under setting [2], 23.5 nM; under setting [3], 23.3 nM.

Consider “UCUGCCGCGGCUCCGAUCCUCCUGUAGUUCCGAGGACCGGUACGGCCGCCACUCGUAGCACAUGAGGAUCACCCAUGUCUUGCGG [Tiqurabira]”, for which the “apparent KD of MS2 coat protein” value stood at 12.1 nM (input ligand: arginine 13.2 mM), 17.5 nM under setting [1] and 13 nM under setting [2].

Take “UCUUGGUCCGCAAGGACCGUGAGUUGCGAUACCAGCACGGUAACGUGCCCUUGGCAGCGCACAUGAGGAUCACCCAUGUGGUGUU [#1 Exclusion - Theophylline A Attempt #15 (HarryS)]”: the “apparent KD of MS2 coat protein” value was 71.6 nM (input ligand: arginine 13.2 mM), 520 nM under setting [1] and 210 nM under setting [3].

For “UCUUGGUCCGCAAGGACCUUGAGUUGCGAUACCAGCACGGUAACGUGCCCUUGGCAGCGCACAUGAGGAUCACCCAUGUGGUGUU [#1 Exclusion - Theophylline A Attempt #16 (HarryS)]”, the “apparent KD of MS2 coat protein” value was 82.3 nM (input ligand: arginine 13.2 mM), 348 nM under setting [1] and 170 nM under setting [3].

As for “UCUUUCUUUGUAGAUACCAGCGUGUUAUCUUUCUUUUGACAUGAGGAUCACCCAUGUAUAUGCCCUUGGCAGCUACAUAUUCUUU [#01 Same State - Theophylline B]”, the “apparent KD of MS2 coat protein” value was found to be 18.1 nM (input ligand: arginine 13.2 mM), 23.6 nM under setting [1] and 18.2 nM under setting [3].

For the sequence “UGACAGAUAACCGCUGGUGCUCUUGAGUUGCGAGGACCGGUACGGCCGCCACUCGACAACAUGAGGAUCACCCAUGUUGCGGGUC [Soleeror]”, the “apparent KD of MS2 coat protein” value is, setting by setting: (input ligand: arginine 13.2 mM) 38.3 nM; (input ligand: none) 146 nM; under setting [1], 89.5 nM; under setting [2], 146 nM; under setting [3], 85.1 nM.

With “UGACAUUGCUCAGAUACCAGACAUGAGCAUCAGCCAUGUACCAAGAGUACAUGUUAAAGUGUCCCUUGGCAGCUGAGCAAUGUCU [Mod of Eli's TheoBX5 #AlternateMS2 v3]”, the “apparent KD of MS2 coat protein” value (input ligand: arginine 13.2 mM) stood at 56.4 nM; the “apparent KD of MS2 coat protein” value (input ligand: none) worked out at 70.9 nM; the “apparent KD of MS2 coat protein” value under setting [1] was found to be 193 nM; the “apparent KD of MS2 coat protein” value under setting [2] was 603 nM; the “apparent KD of MS2 coat protein” value under setting [3] amounted to 72 nM.

On to “UGACAUUGCUGCGAUACCAGACAUGAGGAUCACCCAUGUACCAAGGUAACCGAAAGGCAUGUCCCUUGGCAGCGCAGCAAUGUCU [MAT - Exclusion Theophlline B - Mod of Eli - D13]”, for which the “apparent KD of MS2 coat protein” value was found to be 12.8 nM (input ligand: arginine 13.2 mM), 21 nM under setting [1] and 12.2 nM under setting [3].

With “UGAGAUCCUCAUGAUACCAGUGUACUACAUGAGGAUCACCCAUGUAGCAACAUCUGUAGACACCCUUGGCAGCAUGAGACCACGU [Theo B SS t5]”, the “apparent KD of MS2 coat protein” value by setting is: (input ligand: arginine 13.2 mM) 17.5 nM; under setting [1], 35.2 nM; under setting [3], 15.6 nM.

Consider “UGCGUACAUGAGGAUCACCCAUGUAUAGAUACCAGUCACCCAUGUGGCCCUUGGCAGCUAACAUGAGGAUCACUACAUGAGGAUC [Exclusion Theophylline A 3]”, for which the “apparent KD of MS2 coat protein” value reads like this: (input ligand: arginine 13.2 mM) 24.3 nM; under setting [1], 72.2 nM; under setting [3], 32.7 nM.

For the sequence “UGGAAAGCACAUGAGGAUCACCCAUGUGAUACCAGCUGAAACUAAGGCCCUUGGCAGCACAUGGUACCAACCCUUUGGUAGUCCA [Vearedqu]”, the “apparent KD of MS2 coat protein” value (input ligand: arginine 13.2 mM) amounted to 10.9 nM, the “apparent KD of MS2 coat protein” value under setting [1] was found to be 19.9 nM and the “apparent KD of MS2 coat protein” value under setting [3] was 10.3 nM.

On to “UGGACGCAACGAGCACGAGGUCGGCAGCUACGAGGACCGGUACGGCCGCCACUCGAGUUACGACAUGAGGAUCACCCAUGUAAGG [theeternabot_exclusion_MS2_Trp_A_45]”, for which the “apparent KD of MS2 coat protein” value is 27.9 nM (input ligand: arginine 13.2 mM), 61.1 nM under setting [1] and 51.8 nM under setting [2].

As for “UGGUACAUGAGGAUCACCCAUGUUCCAGAUACCAGACUCCCGGUGGUCCCUUGGCAGCUGGUGGUACAUGAGGAUCACCCAUGUG [Exclusion Theophylline A GF17]”, the “apparent KD of MS2 coat protein” value (input ligand: arginine 13.2 mM) was 28.5 nM, the “apparent KD of MS2 coat protein” value under setting [1] was determined as 44.7 nM and the “apparent KD of MS2 coat protein” value under setting [3] is 30.8 nM.

“UGUAAUGUGGGAAGGAGCGCAUACUUCACAUGAGGAUCACCCAUGUCAAGACGUGAGUCAGUGCAGGUAGGUCGCCUAGUUUAGA [Same State - Arginine B (Freestyle 18)]”: the “apparent KD of MS2 coat protein” value is, setting by setting: (input ligand: arginine 13.2 mM) 37.2 nM; (input ligand: none) 97 nM; under setting [1], 75.4 nM; under setting [2], 88.9 nM; under setting [3], 42 nM.

Regarding “UGUACAUGAGGAUCACCCAUGUUACGCGAUACCAGACAUGAGAGUGUCCCUUGGCAGCGUGGAGCUGAUACGGCGGGAAGCCGGA [#10 SameState-TheophyllineA]”, the “apparent KD of MS2 coat protein” value (input ligand: arginine 13.2 mM) worked out at 16.1 nM, the “apparent KD of MS2 coat protein” value under setting [1] turned out to be 50.2 nM and the “apparent KD of MS2 coat protein” value under setting [3] stood at 45.9 nM.

On to “UGUAUGGACUGAAGGAGCGACUCAAAAUAACAUGAGGAUCACCCAUGUAAGGCGAAAGCCGGUCAGGUAGGUCGCAGUCCAUACU [ArgBX 3]”, for which the “apparent KD of MS2 coat protein” value reads like this: (input ligand: arginine 13.2 mM) 13.7 nM; (input ligand: none) 11.3 nM; under setting [1], 16.1 nM; under setting [2], 10.6 nM; under setting [3], 11.6 nM.

On to “UGUAUGGACUGAAGGAGCGCCUCAAAAUAACUUGAGGAACACCCAAGUAAGGCGAAAGCCGGGCAGGUAGGUCGCAGUCCAUACU [ArgBX 3]”, for which the “apparent KD of MS2 coat protein” value is, setting by setting: (input ligand: arginine 13.2 mM) 31 nM; (input ligand: none) 24.6 nM; under setting [1], 23 nM; under setting [2], 46.1 nM; under setting [3], 34.6 nM.

As to “UGUAUGGACUGAAGGAGCGGAAAAUAAAUCUGAGGAUCACCCAGGUAAUAGGCGAAAGCCAUCCAGGUAGGUCGCAGUCCAUACU”, the “apparent KD of MS2 coat protein” value turned out to be 56.9 nM (input ligand: arginine 13.2 mM); 86.7 nM (input ligand: none); 101 nM under setting [1]; 133 nM under setting [2]; 105 nM under setting [3].
